Data reported in article PMC11375898 (Frontiers in Pharmacology, 2024).
Like-named read-outs stand apart in the source and are kept apart here.

Experiments:
[1] = in vivo
Experimental: The duration of each dose was 0.06 mg for three consecutive days, 0.1 mg for three consecutive days, 0.14 mg for five consecutive days, and 0.2 mg for five consecutive days (Figure 1).
Blood samples (3 mL) were collected in vacuum tubes containing EDTA-K2 at D-1 and at pre-dosing (0 h) and 5, 10, 15, 20, 25, 30, 40, 50, 60, 90, 120, 150 and 180 min after first administration on D6, D7, D11, D12, and D16. PK blood samples were collected at the time point corresponding to the administration date for blank baseline correction on D-1. The vacuum tubes were pre-cooled in the refrigerator (2°C–8°C) for at least 0.5–1 h before use. As the stabilizer, 30 μL DPP IV inhibitor (10 μL/mL) was immediately added into the blood. The stabilizer-spiked blood samples were kept with wet ice during transportation and were centrifuged at 3,000 rpm for 10 min at 4°C to separate the plasma. Samples were stored at −80°C until analysis.
The standard curve ranged from 2.0 to 100.0 pM. The accuracy of intra-batch and inter-batch assays values were −16.7%–20.0% and −6.7%–3.2%, respectively.
The primary PK parameters were maximum observed concentration (Cmax), the area under concentration-time curve from 0 to the last measurable concentration (AUC0-t) and AUC0-inf, whereas the secondary PK parameters were median time to reach maximum concentration (Tmax), terminal half-life time (t1/2), Vz/F, apparent clearance rate (CL/F), terminal elimination rate (λz) and accumulation index (Rac).
Paired t-tests were used to compare the primary PK parameters between the 0.14 mg and 0.2 mg dose groups. Three doses (0.1, 0.14 and 0.2 mg) were evaluated for proportional dose-response relationships using power model. […] Statistical analysis was performed using SAS 9.4 (SAS Institute, Cary, NC, United States).

[2] = system: adult subjects with overweight/obesity; details: in vivo
Experimental: (§1) This single center, open, multiple ascending dose study was conducted at the Phase I Clinical Research Center of the Affiliated Hospital of Qingdao University, Qingdao, China. […] The duration of each dose was 0.06 mg for three consecutive days, 0.1 mg for three consecutive days, 0.14 mg for five consecutive days, and 0.2 mg for five consecutive days (Figure 1). All volunteers were hospitalized 2 days before the first dosing and placed on a standardized diet during hospitalization. All participants were required to fast overnight before the first dosing.
(§2) Safety assessments were conducted by monitoring physical examinations, vital signs (blood pressure, pulse rate, body temperature and respiratory rate), 12-lead ECG, clinical laboratory assays (blood routine, blood biochemistry and urine routine) and AEs. AEs were evaluated by the investigator throughout the study and the severity of AEs was defined in accordance with the Common Terminology Criteria for the Classification of Adverse Events of the National Cancer Institute (NCI CTCAE) version 5.0.

[3] = set-up: method as in Chen et al., 2024; details: week 16, ref Chen et al., 2024, cited from earlier work
[4] = human, in vivo; cited from earlier work
[5] = system: adult subjects with overweight/obesity; assay: Safety assessment (adverse events, NCI CTCAE 5.0), phase I multiple ascending dose trial; details: N = 16
Experimental: as §1, §2

[6] = Total, 0.06-0.2 mg sc three times daily

With “recombinant human GLP-1 (7-36) [beinaglutide]” the “Estimate of slope β1, Ln (AUC0-inf), proportional dose-response (power model)” value [1] was 1.01, the “Estimate of slope β1, Ln (AUC0-t,adj), proportional dose-response (power model)” value [1] was 1.13 and the “Estimate of slope β1, Ln (Cmax), proportional dose-response (power model)” value [1] was 1.13. The “arithmetic mean of CL/Fadj” value ([1]; sc) was 6.81 to 7.66 L/min, the “arithmetic mean of Vz/Fadj” value ([1]; sc) was 292.55 to 401.87 L and the “arithmetic mean of t1/2, adj” value ([1]; sc) was 29.64 to 42.35 min. For the same substance, the “median of Tmax” value ([1]; sc) was 10 to 15 min, the “median of Tmax,adj” value ([1]; sc) was 10 to 15 min and the “time to relief of nausea” value [2] was ≤ 1 h. For the same substance, the mean weight reduction ([3]; female participants) was −6.9%, the mean weight reduction ([3]; male participants) was −4.7% and the “apparent volume of distribution (Vz/F)” value [4] was 379 L. The “AEs leading to death, % of subjects with event” value ([5]; 0.06 mg sc three times daily) was 0.0%, the “AEs leading to death, E (number of events)” value ([5]; 0.06 mg sc three times daily) was 0 and the “AEs leading to death, n (subjects with event)” value ([5]; 0.06 mg sc three times daily) was 0. The “Drug-related AEs leading to death, % of subjects with event” value (“Drug-related AEs leading to death, %” below) ([5]; 0.06 mg sc three times daily) was 0.0%, the “Drug-related AEs leading to death, E (number of events)” value (from here on “Drug-related AEs leading to death, E”) ([5]; 0.06 mg sc three times daily) was 0 and the “Drug-related AEs leading to death, n (subjects with event)” value (shortened to “Drug-related AEs leading to death, n”) ([5]; 0.06 mg sc three times daily) was 0. For the same substance, the “AEs leading to death, % of subjects with event” value ([5]; 0.1 mg sc three times daily) was 0.0%, the “AEs leading to death, E (number of events)” value ([5]; 0.1 mg sc three times daily) was 0 and the “AEs leading to death, n (subjects with event)” value ([5]; 0.1 mg sc three times daily) was 0. The “Drug-related AEs leading to death, %” value ([5]; 0.1 mg sc three times daily) was 0.0%, the “Drug-related AEs leading to death, E” value ([5]; 0.1 mg sc three times daily) was 0 and the “Drug-related AEs leading to death, n” value ([5]; 0.1 mg sc three times daily) was 0. For the same substance, the “AEs leading to death, % of subjects with event” value ([5]; 0.14 mg sc three times daily) was 0.0%, the “AEs leading to death, E (number of events)” value ([5]; 0.14 mg sc three times daily) was 0 and the “AEs leading to death, n (subjects with event)” value ([5]; 0.14 mg sc three times daily) was 0. For the same substance, the “Drug-related AEs leading to death, %” value ([5]; 0.14 mg sc three times daily) was 0.0%, the “Drug-related AEs leading to death, E” value ([5]; 0.14 mg sc three times daily) was 0 and the “Drug-related AEs leading to death, n” value ([5]; 0.14 mg sc three times daily) was 0. The “AEs leading to death, % of subjects with event” value ([5]; 0.2 mg sc three times daily) was 0.0%, the “AEs leading to death, E (number of events)” value ([5]; 0.2 mg sc three times daily) was 0 and the “AEs leading to death, n (subjects with event)” value ([5]; 0.2 mg sc three times daily) was 0. For the same substance, the “Drug-related AEs leading to death, %” value ([5]; 0.2 mg sc three times daily) was 0.0%, the “Drug-related AEs leading to death, E” value ([5]; 0.2 mg sc three times daily) was 0 and the “Drug-related AEs leading to death, n” value ([5]; 0.2 mg sc three times daily) was 0. The “AEs leading to death, % of subjects with event” value [5, 6] was 0.0%, the “AEs leading to death, E (number of events)” value [5, 6] was 0 and the “AEs leading to death, n (subjects with event)” value [5, 6] was 0. For the same substance, the “Drug-related AEs leading to death, %” value [5, 6] was 0.0%, the “Drug-related AEs leading to death, E” value [5, 6] was 0 and the “Drug-related AEs leading to death, n” value [5, 6] was 0.
